Experiments:
STAT3 [1] = target: STAT3 (UniProt P40763); test: size exclusion chromatography, fractions immunoblotted; conditions: sites T622
STAT3 [2] = target: STAT3 (UniProt P40763); test: anti-Flag co-IP, Flag-STAT3 with HA-STAT3; conditions: reference: wild type STAT3; sites T622
STAT3 [3] = target: STAT3 (UniProt P40763); test: anti-Flag IP of purified Flag-STAT3 and GST-STAT3; conditions: reference: wild type GST- and Flag-STAT3; sites T622

STAT3, sequence (P40763 whole entry, stated change not applied): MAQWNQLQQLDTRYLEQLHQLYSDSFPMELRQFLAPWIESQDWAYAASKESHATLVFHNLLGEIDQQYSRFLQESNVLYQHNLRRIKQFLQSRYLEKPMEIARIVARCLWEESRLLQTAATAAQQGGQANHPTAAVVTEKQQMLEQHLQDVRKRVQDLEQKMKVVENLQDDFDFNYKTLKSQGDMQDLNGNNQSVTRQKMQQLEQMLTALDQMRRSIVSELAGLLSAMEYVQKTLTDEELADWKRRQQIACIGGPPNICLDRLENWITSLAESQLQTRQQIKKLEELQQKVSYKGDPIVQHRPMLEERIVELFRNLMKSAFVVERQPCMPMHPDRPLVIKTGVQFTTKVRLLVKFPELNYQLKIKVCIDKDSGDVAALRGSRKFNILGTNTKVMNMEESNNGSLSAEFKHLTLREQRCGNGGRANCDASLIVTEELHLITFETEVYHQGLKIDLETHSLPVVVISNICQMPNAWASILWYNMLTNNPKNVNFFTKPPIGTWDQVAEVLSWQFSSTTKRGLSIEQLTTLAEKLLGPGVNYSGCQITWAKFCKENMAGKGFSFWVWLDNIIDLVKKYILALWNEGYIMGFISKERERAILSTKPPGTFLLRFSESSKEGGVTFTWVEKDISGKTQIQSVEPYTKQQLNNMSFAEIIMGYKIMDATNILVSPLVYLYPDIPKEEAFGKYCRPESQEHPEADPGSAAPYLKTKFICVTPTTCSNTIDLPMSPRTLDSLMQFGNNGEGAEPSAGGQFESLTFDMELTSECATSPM

STAT3 (from UniProt P40763) Flag-STAT3 T622A
binding against the reference (STAT3 [1]; reference: wild type Flag-STAT3): stronger

STAT3 (from UniProt P40763) His-MST2 treated
binding against the reference (STAT3 [1]; reference: untreated WT Flag-STAT3): same

STAT3 (from UniProt P40763) STAT3 T622A
binding against the reference (STAT3 [2]): stronger

STAT3 (from UniProt P40763) T622A GST- and Flag-STAT3
binding against the reference (STAT3 [3]): stronger

— paper PMC9357639
